Data set [1] in a line: purified protein yield per well (BCA); higher = higher soluble expression. Summed up: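 The measured quantity is purified protein yield per well, determined with the Pierce Rapid Gold BCA kit. Anything below 25 ug (0.1 mg/mL) lies under the detection threshold. Enzymes were expressed in E. coli C41(DE3) in 2 mL autoinduction cultures with 100 µg/mL kanamycin at 37 °C for 2 h, then 18 °C for 40 h, and purified on an OT-2 robot using Ni-charged magnetic beads and SUMO protease release.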

Data set [2] is described as follows: PET hydrolysis, aromatic products released after 48 h (umol product/mg enzyme); higher = more PET depolymerization activity. The settings on record: substrate: cryPow. Here is the method: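 HTP-purified, SUMO-cleaved, tagless PET hydrolase candidates (5 ug, 1.43 mg/g PET) were incubated 48 h without shaking with 3.5 mg amorphous PET film (aFilm) or crystalline PET powder (cryPow) in 0.5 mL buffer: NaCitrate pH 4.5/5.5, NaPhosphate pH 6.5/7.5, glycine pH 8.5. Incubation was at 40 or 60 C. Aromatic products (TPA, MHET, BHET) in the supernatant were quantified by UV absorbance at 260/280 nm relative to buffer blanks and expressed per mg enzyme. LCC-ICCG was the positive control on every plate.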

Data set [3] can be described thus: melting temperature (DSF); higher = more thermostable. Here is the method:
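Candidate PET hydrolases were expressed in E. coli C41(DE3) in 2 mL autoinduction cultures in 24-deep-well plates, Ni-bead purified and released by SUMO protease cleavage on an OT-2 robot. Yield per well was measured by BCA; values below 25 ug (0.1 mg/mL) are below the detection threshold. Melting temperature was measured by differential scanning fluorimetry with Sypro Orange, ramping from 25 C at 0.3 C/step.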

As for “QSNPYERGPAPTESSIEATRGSFSVSDKNVSSFSASGFGGGTIYYPTDTSQGTFGGVAISPGFTAGESSIAWLGPRIASQGFVVITIDTNSRYDQPNSRADQLQAALDHIVADSTVGSRIDPNRLAVMGHSMGGGGSLKAAEDNADLQAAVPLQPWHTQKNWSDVEVPTLIIGAENDSVASVTTHSKPFYTSLPDDLDKAYLELDGASHFVSNTPDTTTAKYSISWLKRFVDDDTRYEQFLCPAPDDRTISEYRDTCPHSGGGGTTPTTTPTTLPPDDDCAWWQWWC [DP057]”, the “purified protein yield per well” value in data set [1] stood at 34 µg. In addition, the PET hydrolysis in data set [2] (40 °C, pH 5.5) is under 3; in data set [2] (40 °C, pH 6.5), 10; in data set [2] (40 °C, pH 7.5), 29; in data set [2] (40 °C, pH 8.5) it was 31.

For the sequence “QVAIFQESFSSGLGGFTATGTVGTSTGAARMEGCYGCTDGAITSGAISTQGFTGLSLSFDRVTSGLDSGEAGIAEYSTNGSTWTAVESTRVTTNGRVTFSLPDTAAGQAALRLRFRIDASLSSETYTVDNVQLTGIPGDTGTNPYAKGPNPTTSMLESSTGPFTYATTNVSEFSASGYGGGTIYHPTNVAGPFAAIAISPGYTGTKSTMSWWGERLASHGFVVITIDTNSIYDQPYERAPQLMAALRQLVTFSNTSSHPIYRKVDPNRLGVMGHSMGGGGTLIAARDNPTLKAAIPLAPWNTSTDFSSVRVPTLVVACESDTIAPVSQHASPFYNSIPASATKKAFMEMNNGDHFCVMTGNDYTRIMGKYGVAWMKRFMDNDTRYSPFLCGAPHQADLSNIQISEYRENCPY [DP048]”, the “purified protein yield per well” value in data set [1] came out at 56 µg. Besides, the PET hydrolysis is under 3 in data set [2] (40 °C, pH 5.5); under 3 in data set [2] (40 °C, pH 6.5); under 3 in data set [2] (40 °C, pH 7.5); under 3 in data set [2] (40 °C, pH 8.5); under 3 in data set [2] (60 °C, pH 5.5); under 3 in data set [2] (60 °C, pH 6.5). The PET hydrolysis in data set [2] (60 °C, pH 7.5) is under 3; in data set [2] (60 °C, pH 8.5), under 3.

Take “SNPTPTPTPTPTPTPTPGNNPFQRGPNPTLSFIEANSGPYSVRTSRVSSYTSGFGGGTIHYPTGQSGTMGAIVVIPGFVSAESSIEWWGPKLASHGFVVMTIDTNSGFDQPPSRARQINAALDYLVAQNRSSRSPVRGMIDTNRLGVVGWSMGGGGTLRVASEGRIKAAIPLAPWDTTSFRNVKAPTLIFACESDVIAPVGQHASPFYNELPSNISKAFVELNGGSHYCGNGGNSYNDVLSRFGVSWMKRFLDNDTRYSQFLCGPNHTSDRDISEYRGNCNY [ESM042]”: in data set [1], the “purified protein yield per well” value is 73.3 µg. The PET hydrolysis in data set [2] (40 °C, pH 4.5) is under 3; in data set [2] (40 °C, pH 5.5), under 3; in data set [2] (40 °C, pH 6.5), under 3; in data set [2] (40 °C, pH 7.5) it was under 3; in data set [2] (60 °C, pH 4.5), under 3; in data set [2] (60 °C, pH 5.5), under 3. The PET hydrolysis in data set [2] (60 °C, pH 6.5) was under 3; in data set [2] (60 °C, pH 7.5) it was under 3.

In data set [3], “TADSSYQRGPAPTEASVRADRGPFQVARVNVPGAGFGSGTIYYPTDTSQGTFGGVAVSPGFLSPEILIAWLGPRLASHGFVVITFTTNTPTDQPDSRGSQLLAALDYLTTQSPTAVRQRLDNTRLSVIGHSMGGGGALRAANDRPDLQAAVPLGPYHTTKDWSGVRVPTMIIGGQYDSIAPNDQHSERFYNSLDSAPEKAYLRVTGTTHITVGTGTPGVGKYVLSWLKRFVDDDTRYDQFLCPTPSGPDVVEYHSTCPHA [TEP009]” gave a melting temperature of 49.3 C. Besides, in data set [1], the “purified protein yield per well” value was determined as 28.4 µg.

Turning to “TAGAEPSGGAPAAGGSGCGDVADPAAQGPLHVQTYSSGLRDGPDYGSQTMHYPTDGAPPYPALVIVPGFMSLESSIADHGPHFASHGIVTLTIGTNSTMDQPPARSEALLDALETIRAEHTRAGGPLEGKLDLSRLGVMGWSMGGGGTLITVDDHPELKAAITLCAWNPGQTYRNNQVPTLLFAGTADTLAGG [TEP195]”, the “purified protein yield per well” value in data set [1] is 30.1 µg. Moreover, the PET hydrolysis in data set [2] (40 °C, pH 4.5) was under 3; in data set [2] (40 °C, pH 5.5), under 3; in data set [2] (40 °C, pH 6.5), under 3; in data set [2] (40 °C, pH 7.5), under 3.

On to “TNPAPPSTPNPPAEESPYVRGPNPTVSFLEARSGPLSVRTSRVSSLVSGFGGGTIHYPTGTTGTMGAVVVIPGFVSAESSIDWWGPKLASHGFVVLTIDTNTGFDQPPSRARQINNALDYLVSQNSSRTSPVRGMIDTNRLGVIGWSMGGGGTLRVASEGRIKAAIPLAPWDTVSSYAANAQAPTLIFACQADIVAPVAAHASPFYNRLPNSIDKAYVEISGGSHYCANGGGLNNNVLSRFGVSWMKRFLDEDTRYSQFLCGPNHRSDRDIADYRGNCP [ESM172]”, for which the melting temperature in data set [3] was 49 C. The “purified protein yield per well” value in data set [1] was 26 µg.

On to “VPVVPAQQENPYQRGPDPTPESVEAPRGSFAIEKATIARGSVQGFGGGTIYYPTDTAEGTFGAVAISPGFTESQSAISWYGERLATQGFVVFTIDTNGGLDQPDSRADQLLAALDFLTGSSEVKDRIDASRLGVLGHSMGGGGSLSAAKKRPALQAAVPLAPWHTNSNWSDVTVPTLIVGAENDAVAPVGMHAEPFYAGLTKAPEKAYLELKGADHFVTNSPNTVIAKSTLSWLKRFIDDDTRYDQFLCPPPKPDNDISEYRDTCPN [DP051]”, for which the “purified protein yield per well” value in data set [1] was under 25 µg. The PET hydrolysis is under 3 in data set [2] (40 °C, pH 5.5); under 3 in data set [2] (40 °C, pH 6.5); under 3 in data set [2] (40 °C, pH 7.5); under 3 in data set [2] (40 °C, pH 8.5).
